The chains are these.
T1: human lysozyme (human, UniProt P61626 19-148)
T1 construct: Bought; passed through Superdex 75 before SPR
T1 sequence (looked up): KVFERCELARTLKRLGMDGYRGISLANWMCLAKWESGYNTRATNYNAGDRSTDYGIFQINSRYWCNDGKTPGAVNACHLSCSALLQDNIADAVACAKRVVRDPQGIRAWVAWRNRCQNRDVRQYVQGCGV

B1: HVLHLQI (antibody, V domains shown)
VL: DIQMTQSPSSLSASVGDRVTITCRASQSIQIMLDWYQQKPGKAPKLLCFGASFLISGVPSRFSCSGSGTDFTLTISNLQPEDFATYYCRQTWTPPAPTFGHGTKVTVL
notes: Anti-human lysozyme VL single-domain antibody from the HVLP324S library (Cys48/Cys64); not shown: C-terminal His6 tag
B2: HVLHLNN (antibody, V domains shown)
VL: DIQMTQSPSSLSASVGDRVTITCSASQSINNRLYWYQQKPGKAPKLLCFPASFLFSGVPSRFSCSGSGTDFTLTISNLQPEDFATYYCQQSYSTPRTFGHGTKVTVL
notes: as for B1
B3: HVLHLDS (antibody, V domains shown)
VL: DIQMTQSPSSLSASVGDRVTITCTVSQGIDSRLYWYQQKPGKAPKLLCFPASLLESGVPSRFSCSGSGTDFTLTISNLQPEDFATYYCQQSYSTPRTFGHGTKVTVL
notes: as for B1
B4: HVLHLNE (antibody, V domains shown)
VL: DIQMTQSPSSLSASVGDRVTITCDASQSINERLYWYQQKPGKAPKLLCFPASILTSGVPSRFSCSGSGTDFTLTISNLQPEDFATYYCRQPRSGPSTFGHGTKVTVL
notes: as for B1
B5: HVLHLRN (antibody, V domains shown)
VL: DIQMTQSPSSLSASVGDRVTITCKASQGIRNRLYWYQQKPGKAPKLLCFPASILDSGVPSRFSCSGSGTDFTLTISNLQPEDFATYYCAQQPGLPNSRTFGHGTKVTVL
notes: as for B1
B6: HVLHLEM (antibody, V domains shown)
VL: DIQMTQSPSSLSASVGDRVTITCQASQGIEMFLQWYQQKPGKAPKLLCFAASTLQSGVPSRFSCSGSGTDFTLTISNLQPEDFATYYCVQPGVAPPPGTFGHGTKVTVL
notes: as for B1
B7: HVLHLYS (antibody, V domains shown)
V domain: DIQMTQSPSSLSASVGDRVTITCQASQSIYSKLYWYQQKPGKAPKLLCFPASLLWSGVPSRFSCSGSGTDFTLTISNLQPEDFATYYCLQNAADPHRTFGHGTKVRL
notes: as for B1
B8: HVLHLAQ (antibody, V domains shown)
VL: DIQMTQSPSSLSASVGDRVTITCGASQSIAQRLYWYQQKPGKAPKLLCFPASLLHSGVPSRFSCSGSGTDFTLTISNLQPEDFATYYCAQRASPPRPTFGHGTKVTVL
notes: as for B1
B9: HVHP421S (antibody, V domains shown)
VH: QLQLQESGGGVVQPGRSLRLSCAASGFTFSSYAMSWVRQAPGKGLEWVCAISGSGGSTYYADSVKGRFTCSRDNSKNTLYLQMNSLRAEDTAVYYCAKDGKGGSSGYDHPDYWGQGTLVTVSS
notes: Cys49/Cys69 (Kabat) mutant of HVHP421; VH single-domain antibody; tag not specified
B10: HVHPC235 (antibody, V domains shown)
VH: QVQLVESGGGLIKPGGSLRLSCAASGFSVISESMTWVRQAPGKGLEWVSAISSSGGSTYYADSVKGRFTISRDNSKNTVHLQMNSLRADDTAVYYCAAKKIDGARYDYWGQGTMVTVSS
notes: Human VH single-domain antibody (wild-type), tested alone; tag not specified; also called HVHAmC235; HVHC235
B11: HVHP430S (antibody, V domains shown)
VH: QVQLVESGGGLIKPGGSLRLSCAASGFTFSNYAMSWVRQAPGKGLEWVCAISSSGGSTYYADSVKGRFTCSRDNSKNTVYLQMNSLRAEDTAVYYCVREEYRCSGTSCPGAFDIWGQGTMVTVSS
notes: Cys49/Cys69 (Kabat) mutant of HVHP430; VH single-domain antibody; tag not specified
B12: HVHP414S (antibody, V domains shown)
VH: DVQLVQSGGGLVKPGGSLRLSCTASGFPFSNAWMSWVRQAPGKGLEWVCRITSKTDGGTTDYVAPVKGRFTCSRDDSKNTLYLQMNSLKTEDTAVYYCTTDQANAFDIWGQGTMVTVSS
notes: Cys49/Cys69 (Kabat) mutant of HVHP414; VH single-domain antibody; tag not specified
B13: HVHP413S (antibody, V domains shown)
VH: QVQLVQSGGGLVKPGGSLRLSCAASGFTFSDYYMSWVRQAPGKGLEWVCFIYSGGSTYYADSVKGRFTCSRDNSKNTLYLQMNSLRAEDTAVYYCARESRVGGGAFDIWGQGTMVTVSS
notes: Cys49/Cys69 (Kabat) mutant of HVHP413; VH single-domain antibody; tag not specified
B14: HVHAm427 (antibody, V domains shown)
VH: QVQLVESGGGLIKPGGSLRLSCAASGVTLSPECMAWVRQAPGKGLEWVSAISSSGGSTYYADSVKGRFTISRDNSKNTVYLQMNSLRAEDTAVYYCVSCEGENAFWGQGTMVTVSS
notes: Human VH single-domain antibody (wild-type), tested alone; tag not specified
B15: HVHAm427S (antibody, V domains shown)
VH: QVQLVESGGGLIKPGGSLRLSCAASGVTLSPECMAWVRQAPGKGLEWVCAISSSGGSTYYADSVKGRFTCSRDNSKNTVYLQMNSLRAEDTAVYYCVSCEGENAFWGQGTMVTVSS
notes: Cys49/Cys69 (Kabat) mutant of HVHAm427; VH single-domain antibody; tag not specified
B16: HVHP420S (antibody, V domains shown)
VH: QVQLVESGGGLVKPGGSLRLSCAASGFTFSNAWMTWVRQAPGKGLEWVCRIKTKTDGGTTDYAAPVKGRFTCSRDDSKNTLYLQMNSLKTEDTAVYYCTTDRDHSSGSWGQGTLVTVSS
notes: Cys49/Cys69 (Kabat) mutant of HVHP420; VH single-domain antibody; tag not specified
B17: HVHP419S (antibody, V domains shown)
VH: QLQLQESGGGLVQPGGSLRLSCAASGFTFSSYAMSWVRQAPGKGLEWVCAISGSGGSTYYADSVKGRFTCSRDNSKNSLYLQMNSLGAEDTAVYYCARSWSGSSYGGDLDSWGQGTLVTVSS
notes: Cys49/Cys69 (Kabat) mutant of HVHP419; VH single-domain antibody; tag not specified
B18: HVHB82S (antibody, V domains shown)
VH: QVQLQESGGGLVQPGGSLRLSCAASGFTFSSYAMSWVRQAPGKGLEWVCAISGSGGSTYYADSVKGRFTCSRDNSKNTLYLQMNSLRAEDTAVYYCGTDMEVWGKGTTVTVSS
notes: Cys49/Cys69 (Kabat) mutant of HVHB82; VH single-domain antibody; tag not specified
B19: HVHP426S (antibody, V domains shown)
VH: QVQLVQSGGGVVQPGRSLRLSCAASGFIVDGYAMHWVRQAPGQGLEWVCVTNNGGSTSYADSVKGRFTCSRDNSKNTVYLQMNSLRAEDTAVYYCARQSITGPTGAFDIWGQGTMVTVSS
notes: Cys49/Cys69 (Kabat) mutant of HVHP426; VH single-domain antibody; tag not specified
B20: HVHP429S (antibody, V domains shown)
VH: EVQLVESGGTLVQPGGSLRLSCAASGFTFINYAMSWVRQAPDKGLDWVCTISNNGGATYYADSVKGRFTCSRDNSNNTLYLQMNSLRPDDTAVYYCAKGPINTGRYGDWGQGTLVTVSS
notes: Cys49/Cys69 (Kabat) mutant of HVHP429; VH single-domain antibody; tag not specified
B21: HVHP428S (antibody, V domains shown)
VH: QLQLQESGGGLVQPGGSLRLSCAASGFTFSSYAMSWFRQAPGKGLEWVCFIRSKAYGGTTEYAASVKGRFTCSRDDSKSIAYLQMNSLRAEDTAMYYCARRAKDGYNSPEDYWGQGTLVTVSS
notes: Cys49/Cys69 (Kabat) mutant of HVHP428; VH single-domain antibody; tag not specified
B22: HVHAm431 (antibody, V domains shown)
VH: QVQLVESGGGLIKPGGSLRLSCAASGYTVSSECMGWVRQAPGKGLEWVSAISSSGGSTYYADSVKGRFTISRDNSKNTVYLQMNSLRAEDTAVYYCVRDSKNCHDKDCTRPYCSWGQGTMVTVSS
notes: as for B14
B23: HVHAm431S (antibody, V domains shown)
VH: QVQLVESGGGLIKPGGSLRLSCAASGYTVSSECMGWVRQAPGKGLEWVCAISSSSGSTYYADSVKGRFTCSRDNSKNTVYLQMNSLRAEDTAVYYCVRDSKNCHDKDCTRPYCSWGQGTMVTVSS
notes: Cys49/Cys69 (Kabat) mutant of HVHAm431; VH single-domain antibody; tag not specified
B24: HVHAm302 (antibody, V domains shown)
VH: QVQLVESGGGLIKPGGSLRLSCAASGDTVSDESMTWVRQAPGKGLEWVSAISSSGGSTYYADSVKGRFTISRDNSKNTVYLQMNSLRAEDTAVYYCVTDNRSCQTSLCTSTTRSWGQGTMVTVSS
notes: Human VH single-domain antibody (wild-type), tested alone; monomer peak used for SPR; tag not specified
B25: HVHAm302S (antibody, V domains shown)
VH: QVQLVESGGGLIKPGGSLRLSCAASGDTVSDESMTWVRQAPGKGLEWVCAISSSGGSTYYADSVKGRFTCSRDNSKNTVYLQMNSLRAEDTAVYYCVTDNRSCQTSLCTSTTRSWGQGTMVTVSS
notes: Cys49/Cys69 (Kabat) mutant of HVHAm302; VH single-domain antibody; tag not specified

A value given as a limit tells only on which side of the number the result lay.

In one assay the target is T1, human lysozyme. In words: SPR (Biacore 3000), human lysozyme over immobilized VL. The protocol:
The affinities (KDs) of the anti-human lysozyme VLs to their antigen, human lysozyme, was also determined. The binding of human lysozyme to immobilized anti-human lysozyme VL binders was determined by surface plasmon resonance (SPR) using BIACORE 3000 (GE Healthcare). […] Immobilizations were carried out at concentrations of 10 μg/mL in 10 mM acetate at pH 4.5 using the amine coupling kit supplied by the manufacturer. Human lysozyme was passed through a Superdex 75 column (GE Healthcare) in HBS-EP buffer (10 mM HEPES, pH 7.4, 150 mM NaCl, 3 mM EDTA and 0.005% P20 surfactant) with flow rate of 0.5 mL/min to eliminate any possible aggregates prior to Biacore analysis. For the binding studies, analyses were carried out at 25° C. in 10 mM HEPES, pH 7.4 containing 150 mM NaCl, 3 mM EDTA and 0.005% surfactant P20. The flow rates used were 20 μL/min. For regeneration the surfaces were washed for 15 min with the running buffer. Data were analyzed with BIAevaluation 4.1 software. From the SPR profiles (FIG. 15), it can be seen that the anti-human lysozyme VLs indeed bind to their target antigen, lysozyme, confirming the binding results obtained by phage ELISA.
(SPR reads the build-up and loss of mass on a sensor chip optically.)
As to B1, binding was put at a Kd of 2600 nM. In the case of B2, the affinity, expressed as Kd, was 200 nM. On the same count and under the same terms, the same measure for B3: 6100 nM; for B4: 60 nM.

B5 yielded a Kd of 50 nM. The same measure, in the same setting: the same measure for B6: greater than 73000 nM. Same read-out and setting: the value for B7 was 6400 nM; that for B8 was 200 nM.

In the next assay the target is T2, protein A (UniProt P38507 37-477).
T2 construct: Bought (Pierce); immobilized on CM5 chip by amine coupling; also called recombinant protein A
The assay can be described thus: SPR (Biacore 3000), VH over immobilized protein A. Here is the method: Immobilizations were carried out at 50 μg/mL in 10 mM acetate buffer, pH 4.5, using the amine coupling kit supplied by the manufacturer (GE Healthcare). All measurements were carried out at 25° C. in HBS-EP buffer at a flow rate of 50 μL/min. Surfaces were regenerated by washing with the running buffer.
Regarding B9, the affinity, expressed as Kd, was 2800 nM.

As for B10, the Kd was 300 nM. Still for that read-out and setting: the same measure for B11: 7700 nM; for B12: 1800 nM. Turning to B13, the Kd is 1500 nM. Same read-out and setting: the value for B14 was 1600 nM; that for B15 was 4000 nM.

In turn, B16 gave a Kd of 2200 nM.

B17 registered a Kd of 4800 nM. B18 had a Kd of 1200 nM.

B19 returned a Kd of 3400 nM. Same read-out and setting: the value for B20 was 5500 nM. As for B21, the Kd is 1600 nM.

B22 had a Kd of 4000 nM. The same measure, in the same setting: the same measure for B23: 8000 nM.

B24 showed a Kd of 3000 nM. Still for that read-out and setting: the same measure for B25: 10000 nM.

In the next assay the target is T2, protein A. The assay can be described thus: SPR (Biacore 3000), VH over immobilized protein A; value in parentheses obtained with higher concentration of monomer (footnote d). Here is the method: For mutant VHs (HVHP44S, HVHB82S, HVHP421S, HVHP419S, HVHP430S, HVHP429S, HVHM81S, HVHP428S, HVHP420S, HVHM41S, HVHP423S, HVHP413S, HVHP426S, and HVHP414S), approximately 1,170 RUs and 1,240 RUs of recombinant protein A and ovalbumin (reference protein), respectively, were immobilized on research grade sensor chip CMS. Immobilizations were carried out at 50 μg/mL in 10 mM acetate buffer (pH 4.5 for both protein A and ovalbumin) using the amine coupling kit supplied by the manufacturer. All measurements were carried out at 25° C. in HBS-EP buffer at a flow rate of 20 μL/min or 40 μL/min for HVHB82S, HVHP421S, HVHP429S, HVHM41S, HVHM81S, HVHP423S, HVHP413S, HVHP426S, and HVHP414S or HVHP44S, HVHP419S, HVHP430S, HVHP428S, and HVHP420S, respectively. The protein A binding property of the wild-type counterparts were determined previously (To et al 2005).
Take B17: the Kd came to 3200 nM. On to B20, for which the Kd was found to be 3400 nM.

By Kd is commonly meant the constant that tells how readily two partners part at equilibrium.

Values taken from patent US20170044238A1 (NATIONAL RESEARCH COUNCIL OF CANADA, published 2017).
